Measured values as given in paper PMC13544220, “Glycemic and bodyweight effects of GIPR coding variation reflect differences in surface expression and intrinsic functional impairment” (Science Advances, 2026).

Experiments:
[1] = tested on: wild-type and variant SNAP-GIPR; assay: Surface SNAP-GIPR expression (SNAP-tag labelling) in AD293 cells; assay type: cell-based, human; conditions: for AD293 Surface: Fig S3E, mean; for Surface SNAP-GIPR expression: sheet Fig 1C;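 as to all read-outs here: scaled to the experimental average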
In short: (§1)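 Surface GIPR is quantified from wide-field images after labelling intact transfected cells with a membrane-impermeant SNAP probe at 500 nM for 10 min at room temperature. Specific signal, corrected for nontransfected cells, is normalized to the experiment-wide average or to wild-type.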

[2] = tested on: wild-type and variant SNAP-GIPR in wild-type mouse islets; assay: Insulin secretion from wild-type mouse islets transduced with GIPR adenoviruses; assay type: cell-based; conditions: Fig 6F
Method: Isolated islets used for insulin secretion assays were treated in 1.5-ml microcentrifuge tubes. Eight-ten islets were used per well with two-three technical replicates per condition. […] At the end of the treatment, supernatants containing the secreted insulin or glucagon were collected, centrifuged at 1000g for 5 min, and transferred to fresh tubes. […] The lysates were sonicated 3× for 10 s in a water bath and centrifuged at 10,000g for 10 min, and the supernatants were collected. […] GraphPad Prism 9.0 was used for the generation of the standard curve and sample concentration extrapolation. The total insulin or glucagon content was calculated by adding the secreted insulin to the insulin content of the lysates, and secretion was reported as the percentage release of total. The percent secretion of islets treated with agonist was normalized to that of islets treated with vehicle and reported as a fold change.

[3] = tested on: wild-type and variant SNAP-GIPR; assay: Constitutive and agonist-mediated internalization, reversible SNAP-tag labelling, INS-1 cells; assay type: cell-based, human; set-up: key to Internalisation, GIP-only / Internalisation, Vehicle / Internalisation, +GIP: % internalization: residual fluorescence after Mesna vs pre-Mesna; conditions: Mean; for +GIP internalisation (100 nM) / GIP-specific internalisation (100 nM) / Constitutive internalisation (100 nM): Fig 4G; for +GIP internalisation (100 nM) / GIP-specific internalisation (100 nM): GIP 100 nM; for Internalisation, +GIP / Internalisation, GIP-only / Internalisation, Vehicle: Fig S4C, INS-1
In short: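 % internalization = residual specific fluorescence after Mesna / pre-Mesna value. Imaging in TNE buffer pH 8.6; second image 10 min post-Mesna.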

[4] = tested on: wild-type and variant SNAP-GIPR in Gipr-/- mouse islets; assay: Insulin secretion from Gipr-/- mouse islets transduced with GIPR adenoviruses; assay type: cell-based; conditions: Fig 6D, Gipr-/- mouse islets
Method: Isolated islets used for insulin secretion assays were treated in 1.5-ml microcentrifuge tubes. Eight-ten islets were used per well with two-three technical replicates per condition. […] At the end of the treatment, supernatants containing the secreted insulin or glucagon were collected, centrifuged at 1000g for 5 min, and transferred to fresh tubes. […] The lysates were sonicated 3× for 10 s in a water bath and centrifuged at 10,000g for 10 min, and the supernatants were collected. The samples were stored at −20°C until the insulin or glucagon concentrations were determined using an Insulin Ultra-Sensitive HTRF Assay kit (62IN2PEG, Revvity) or an HTRF Glucagon Detection Kit (62CGLPEG, Revvity) respectively, according to the manufacturer’s instructions. GraphPad Prism 9.0 was used for the generation of the standard curve and sample concentration extrapolation. The total insulin or glucagon content was calculated by adding the secreted insulin to the insulin content of the lysates, and secretion was reported as the percentage release of total. The percent secretion of islets treated with agonist was normalized to that of islets treated with vehicle and reported as a fold change.

[5] = tested on: wild-type and variant SNAP-GIPR; assay: Surface SNAP-GIPR expression (SNAP-tag labelling) in INS-1 cells; assay type: cell-based, human; conditions: Fig 4G; Mean
In short: as §1

[6] = tested on: wild-type and variant SNAP-GIPR; assay: Single-concentration GIP cAMP response by HTRF in INS-1 cells; assay type: cell-based, human; conditions: Fig S3E, mean
Method: All variants were tested in parallel on each occasion to control for transfection efficiency differences between experiments.

[7] = column repeated, paired with cAMP 100 nM

B1: E354Q (protein)
chain: RAETGSKGQTAGELYQRWERYRRECQETLAAAEPPSGLACNGSFDMYVCWDYAAPNATARASCPWYLPWHHHVAAGFVLRQCGSDGQWGLWRDHTQCENPEKNEAFLDQRLILERLQVMYTVGYSLSLATLLLALLILSLFRRLHCTRNYIHINLFTSFMLRAAAILSRDRLLPRPGPYLGDQALALWNQALAACRTAQIVTQYCVGANYTWLLVEGVYLHSLLVLVGGSEEGHFRYYLLLGWGAPALFVIPWVIVRYLYENTQCWERNEVKAIWWIIRTPILMTILINFLIFIRILGILLSKLRTRQMRCRDYRLRLARSTLTLVPLLGVHQVVFAPVTEEQARGALRFAKLGFEIFLSSFQGFLVSVLYCFINKEVQSEIRRGWHHCRLRRSLGEEQRQLPERAFRALPSGSGPGEVPTSRGLSSGTLPGPGNEASRELESYC
AD293 Surface [1, 7]: 0.7482
AD293 Surface ([1]; paired with cAMP 100 pM): 0.7482
Surface SNAP-GIPR expression ([1]; replicate 1): 0.8065
Surface SNAP-GIPR expression ([1]; replicate 2): 0.9885
Surface SNAP-GIPR expression ([1]; replicate 3): 0.6105
Surface SNAP-GIPR expression ([1]; replicate 4): 0.8642
Surface SNAP-GIPR expression ([1]; replicate 5): 0.9388
Surface SNAP-GIPR expression ([1]; replicate 6): 0.763
Surface SNAP-GIPR expression ([1]; replicate 7): 0.751
Surface SNAP-GIPR expression ([1]; replicate 8): 0.7772
Surface SNAP-GIPR expression ([1]; replicate 9): 0.3807
Surface SNAP-GIPR expression ([1]; replicate 10): 0.8583
Surface SNAP-GIPR expression ([1]; replicate 11): 0.7525
Surface SNAP-GIPR expression ([1]; replicate 12): 0.8043
Surface SNAP-GIPR expression ([1]; replicate 13): 1.071
Surface SNAP-GIPR expression ([1]; replicate 14): 0.6911
Surface SNAP-GIPR expression ([1]; replicate 15): 0.7162
Surface SNAP-GIPR expression ([1]; replicate 16): 0.6632
Surface SNAP-GIPR expression ([1]; replicate 17): 0.6439
Surface SNAP-GIPR expression ([1]; replicate 18): 0.5804
Surface SNAP-GIPR expression ([1]; replicate 19): 0.6207
Surface SNAP-GIPR expression ([1]; replicate 20): 0.742
Surface SNAP-GIPR expression ([1]; replicate 21): 0.7392
Surface SNAP-GIPR expression ([1]; replicate 22): 0.5026
Surface SNAP-GIPR expression ([1]; replicate 23): 0.762
Surface SNAP-GIPR expression ([1]; replicate 24): 0.7507
Surface SNAP-GIPR expression ([1]; replicate 25): 0.8473
Surface SNAP-GIPR expression ([1]; replicate 26): 0.7374
Surface SNAP-GIPR expression ([1]; replicate 27): 0.7405
Surface SNAP-GIPR expression ([1]; replicate 28): 0.7355
Surface SNAP-GIPR expression ([1]; replicate 29): 0.6896
Surface SNAP-GIPR expression ([1]; replicate 30): 1.162
Surface SNAP-GIPR expression ([1]; replicate 31): 0.7254
Surface SNAP-GIPR expression ([1]; replicate 32): 0.7792
Surface SNAP-GIPR expression ([1]; replicate 33): 0.8108
Surface SNAP-GIPR expression ([1]; replicate 34): 0.9519
Surface SNAP-GIPR expression ([1]; replicate 35): 0.6078
Surface SNAP-GIPR expression ([1]; replicate 36): 0.6218
Surface SNAP-GIPR expression ([1]; replicate 37): 0.8918
Surface SNAP-GIPR expression ([1]; replicate 38): 0.4883
Surface SNAP-GIPR expression ([1]; replicate 39): 0.768
Surface SNAP-GIPR expression ([1]; replicate 40): 0.6348
Surface SNAP-GIPR expression ([1]; replicate 41): 0.707
Insulin secretion, ratio G11 + GIP / G11 ([2]; replicate 1): 0.7071
Insulin secretion, ratio G11 + GIP / G11 ([2]; replicate 2): 0.9219
Insulin secretion, ratio G11 + GIP / G11 ([2]; replicate 3): 0.7382
Insulin secretion, ratio G11 + GIP / G11 ([2]; replicate 4): 0.5337
Insulin secretion, ratio G11 + GIP / G11 ([2]; replicate 5): 0.4605
+GIP internalisation (100 nM) [3]: 0.4403
GIP-specific internalisation (100 nM) [3]: 0.1518
Constitutive internalisation (100 nM) [3]: 0.2885
Internalisation, +GIP [3]: 61.4683
Internalisation, GIP-only [3]: 21.0467
Internalisation, Vehicle [3]: 40.4217
Insulin secretion, ratio G11 + GIP / G11 ([4]; replicate 1): 1.276
Insulin secretion, ratio G11 + GIP / G11 ([4]; replicate 2): 0.2979
Insulin secretion, ratio G11 + GIP / G11 ([4]; replicate 3): 1.231
Insulin secretion, ratio G11 + GIP / G11 ([4]; replicate 4): 1.587
Surface expression [5]: 0.7154
INS-1 cAMP (100 nM) [6]: 1.46

B2: R190Q (protein)
chain: RAETGSKGQTAGELYQRWERYRRECQETLAAAEPPSGLACNGSFDMYVCWDYAAPNATARASCPWYLPWHHHVAAGFVLRQCGSDGQWGLWRDHTQCENPEKNEAFLDQRLILERLQVMYTVGYSLSLATLLLALLILSLFRRLHCTRNYIHINLFTSFMLRAAAILSQDRLLPRPGPYLGDQALALWNQALAACRTAQIVTQYCVGANYTWLLVEGVYLHSLLVLVGGSEEGHFRYYLLLGWGAPALFVIPWVIVRYLYENTQCWERNEVKAIWWIIRTPILMTILINFLIFIRILGILLSKLRTRQMRCRDYRLRLARSTLTLVPLLGVHEVVFAPVTEEQARGALRFAKLGFEIFLSSFQGFLVSVLYCFINKEVQSEIRRGWHHCRLRRSLGEEQRQLPERAFRALPSGSGPGEVPTSRGLSSGTLPGPGNEASRELESYC
modifications: left off: SNAP-tag, end not stated, kept
AD293 Surface [1, 7]: 0.3804
AD293 Surface ([1]; paired with cAMP 100 pM): 0.3804
Surface SNAP-GIPR expression ([1]; replicate 1): 0.4051
Surface SNAP-GIPR expression ([1]; replicate 2): 0.3209
Surface SNAP-GIPR expression ([1]; replicate 3): 0.5539
Surface SNAP-GIPR expression ([1]; replicate 4): 0.3598
Surface SNAP-GIPR expression ([1]; replicate 5): 0.3596
Surface SNAP-GIPR expression ([1]; replicate 6): 0.3496
Surface SNAP-GIPR expression ([1]; replicate 7): 0.6994
Surface SNAP-GIPR expression ([1]; replicate 8): 0.559
Surface SNAP-GIPR expression ([1]; replicate 9): 0.4541
Surface SNAP-GIPR expression ([1]; replicate 10): 0.3587
Surface SNAP-GIPR expression ([1]; replicate 11): 0.3825
Surface SNAP-GIPR expression ([1]; replicate 12): 0.3815
Surface SNAP-GIPR expression ([1]; replicate 13): 0.0633
Surface SNAP-GIPR expression ([1]; replicate 14): 0.2489
Surface SNAP-GIPR expression ([1]; replicate 15): 0.3401
Surface SNAP-GIPR expression ([1]; replicate 16): 0.3428
Surface SNAP-GIPR expression ([1]; replicate 17): 0.3498
Surface SNAP-GIPR expression ([1]; replicate 18): 0.3062
Surface SNAP-GIPR expression ([1]; replicate 19): 0.4941
Surface SNAP-GIPR expression ([1]; replicate 20): 0.4147
Surface SNAP-GIPR expression ([1]; replicate 21): 0.448
Surface SNAP-GIPR expression ([1]; replicate 22): 0.3466
Surface SNAP-GIPR expression ([1]; replicate 23): 0.3211
Surface SNAP-GIPR expression ([1]; replicate 24): 0.3185
Surface SNAP-GIPR expression ([1]; replicate 25): 0.3831
Surface SNAP-GIPR expression ([1]; replicate 26): 0.4894
Surface SNAP-GIPR expression ([1]; replicate 27): 0.2936
Surface SNAP-GIPR expression ([1]; replicate 28): 0.2968
Surface SNAP-GIPR expression ([1]; replicate 29): 0.3488
Surface SNAP-GIPR expression ([1]; replicate 30): 0.3484
Surface SNAP-GIPR expression ([1]; replicate 31): 0.4442
Surface SNAP-GIPR expression ([1]; replicate 32): 0.3528
Surface SNAP-GIPR expression ([1]; replicate 33): 0.3442
Surface SNAP-GIPR expression ([1]; replicate 34): 0.4073
Surface SNAP-GIPR expression ([1]; replicate 35): 0.5179
Surface SNAP-GIPR expression ([1]; replicate 36): 0.2819
Surface SNAP-GIPR expression ([1]; replicate 37): 0.3273
Surface SNAP-GIPR expression ([1]; replicate 38): 0.3893
Surface SNAP-GIPR expression ([1]; replicate 39): 0.3839
Surface SNAP-GIPR expression ([1]; replicate 40): 0.3508
Surface SNAP-GIPR expression ([1]; replicate 41): 0.4598
Insulin secretion, ratio G11 + GIP / G11 ([2]; replicate 1): 1.037
Insulin secretion, ratio G11 + GIP / G11 ([2]; replicate 2): 0.9818
Insulin secretion, ratio G11 + GIP / G11 ([2]; replicate 3): 1.417
Insulin secretion, ratio G11 + GIP / G11 ([2]; replicate 4): 0.8398
Insulin secretion, ratio G11 + GIP / G11 ([2]; replicate 5): 1.788
+GIP internalisation (100 nM) [3]: 0.2705
GIP-specific internalisation (100 nM) [3]: 0.0143
Constitutive internalisation (100 nM) [3]: 0.2562
Internalisation, +GIP [3]: 45.6067
Internalisation, GIP-only [3]: 2.692
Internalisation, Vehicle [3]: 42.915
Insulin secretion, ratio G11 + GIP / G11 ([4]; replicate 1): 0.6189
Insulin secretion, ratio G11 + GIP / G11 ([4]; replicate 2): 1.413
Insulin secretion, ratio G11 + GIP / G11 ([4]; replicate 3): 1.022
Insulin secretion, ratio G11 + GIP / G11 ([4]; replicate 4): 0.3777
Surface expression [5]: 0.5789
INS-1 cAMP (100 nM) [6]: -0.04979
